The record followed here is patent US20100158968A1 (PURDUE RESEARCH FOUNDATION, published 2010).

Non-standard residues stand in square brackets, D forms with d. No end group written: not given here.

What all share (experiment): cell-based or functional assay
Assay [1] has as its target T1, mitogen-activated protein kinase-activated protein kinase 2 (human MK2) (human, UniProt P49137 46-400, limits assumed).
Assay [2] has as its target PKBβ (h) (protein kinase B) (human, UniProt P31751 120-481, limits assumed).
For assay [3], the target named is SAPK2a (h) (p38α) (human, UniProt Q16539 1-360).
Sequence of SAPK2a (h) (p38α) (Q16539 whole entry): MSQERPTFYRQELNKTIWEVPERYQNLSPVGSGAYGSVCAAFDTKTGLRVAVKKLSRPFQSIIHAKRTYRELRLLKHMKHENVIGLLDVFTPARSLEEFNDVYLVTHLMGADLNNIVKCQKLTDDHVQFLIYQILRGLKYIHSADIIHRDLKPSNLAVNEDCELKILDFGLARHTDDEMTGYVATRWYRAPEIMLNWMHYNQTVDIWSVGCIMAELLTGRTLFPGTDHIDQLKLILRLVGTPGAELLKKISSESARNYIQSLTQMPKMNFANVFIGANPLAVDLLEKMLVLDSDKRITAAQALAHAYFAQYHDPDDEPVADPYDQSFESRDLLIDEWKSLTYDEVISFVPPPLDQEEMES
The target of assay [4] is ROCK-I (h) (Rho-associated serine/threonine kinase) (human, UniProt Q13464 17-535, limits assumed).
Sequence of ROCK-I (h) (Rho-associated serine/threonine kinase) (Q13464 17-535 limits assumed): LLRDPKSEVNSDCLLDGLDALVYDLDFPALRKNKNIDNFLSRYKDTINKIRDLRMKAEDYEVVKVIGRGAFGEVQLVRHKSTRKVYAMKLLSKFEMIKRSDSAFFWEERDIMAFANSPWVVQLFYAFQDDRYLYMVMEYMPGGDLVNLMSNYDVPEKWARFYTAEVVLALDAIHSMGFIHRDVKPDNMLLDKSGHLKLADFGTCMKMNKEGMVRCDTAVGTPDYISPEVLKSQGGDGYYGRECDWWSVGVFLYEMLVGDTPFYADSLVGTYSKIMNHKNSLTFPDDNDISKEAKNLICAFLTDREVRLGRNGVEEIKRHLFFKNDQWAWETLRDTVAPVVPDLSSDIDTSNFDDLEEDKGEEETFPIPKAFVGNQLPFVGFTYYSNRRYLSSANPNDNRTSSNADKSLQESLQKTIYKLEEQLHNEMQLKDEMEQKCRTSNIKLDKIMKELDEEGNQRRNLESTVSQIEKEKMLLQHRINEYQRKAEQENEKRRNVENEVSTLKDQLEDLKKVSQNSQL
The target of assay [5] is CaMKI (h) (calcium/calmodulin-dependent protein kinase) (human, UniProt Q14012 1-370, limits assumed).
Sequence of CaMKI (h) (calcium/calmodulin-dependent protein kinase) (Q14012 whole entry): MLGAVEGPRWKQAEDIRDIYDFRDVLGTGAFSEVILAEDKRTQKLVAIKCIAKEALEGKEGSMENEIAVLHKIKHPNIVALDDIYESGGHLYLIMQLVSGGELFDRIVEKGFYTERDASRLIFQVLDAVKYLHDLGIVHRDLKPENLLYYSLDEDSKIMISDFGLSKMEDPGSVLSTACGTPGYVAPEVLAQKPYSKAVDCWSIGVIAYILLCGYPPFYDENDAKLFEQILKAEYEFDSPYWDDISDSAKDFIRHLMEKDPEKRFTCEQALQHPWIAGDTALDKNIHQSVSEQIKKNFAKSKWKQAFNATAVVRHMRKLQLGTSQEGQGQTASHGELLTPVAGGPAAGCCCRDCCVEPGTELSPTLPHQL
Assay [6] deals with T2, PRAK (h) (p38 regulated/activated protein kinase) (human, UniProt Q8IW41 1-473, limits assumed).
T2 sequence (looked up): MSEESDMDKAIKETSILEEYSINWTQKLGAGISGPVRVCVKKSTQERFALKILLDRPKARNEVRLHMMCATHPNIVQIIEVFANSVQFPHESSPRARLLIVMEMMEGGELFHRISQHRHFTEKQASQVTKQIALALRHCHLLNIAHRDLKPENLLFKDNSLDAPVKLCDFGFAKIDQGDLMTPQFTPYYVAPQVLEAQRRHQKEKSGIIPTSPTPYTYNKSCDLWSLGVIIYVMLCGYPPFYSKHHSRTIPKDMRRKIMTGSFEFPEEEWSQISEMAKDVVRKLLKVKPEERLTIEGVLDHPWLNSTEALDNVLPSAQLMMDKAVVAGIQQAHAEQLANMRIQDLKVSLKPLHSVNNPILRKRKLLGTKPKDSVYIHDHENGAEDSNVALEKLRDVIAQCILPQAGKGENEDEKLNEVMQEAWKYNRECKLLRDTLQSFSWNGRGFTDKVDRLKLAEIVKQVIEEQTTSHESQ

The target of assay [7] is MLCK (h) (myosin light chain kinase) (human).
Assay [8] concerns the target T1, mitogen-activated protein …. The source holds these as a separate data set.
Assay [9] deals with MK3 (mitogen-activated protein kinase-activated protein kinase 3) (human, UniProt Q16644 1-382, limits assumed).
Sequence of MK3 (mitogen-activated protein kinase-activated protein kinase 3) (Q16644 whole entry): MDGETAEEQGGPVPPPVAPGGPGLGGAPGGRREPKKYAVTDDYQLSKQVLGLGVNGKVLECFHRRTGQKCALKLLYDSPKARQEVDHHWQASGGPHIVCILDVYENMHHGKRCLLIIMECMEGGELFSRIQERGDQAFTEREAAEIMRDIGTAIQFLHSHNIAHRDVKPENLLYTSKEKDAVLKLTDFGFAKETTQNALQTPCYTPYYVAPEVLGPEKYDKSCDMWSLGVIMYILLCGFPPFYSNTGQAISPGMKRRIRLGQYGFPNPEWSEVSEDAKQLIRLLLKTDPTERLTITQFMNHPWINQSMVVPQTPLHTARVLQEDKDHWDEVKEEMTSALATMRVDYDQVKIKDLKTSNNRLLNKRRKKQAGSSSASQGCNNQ
Assay [10] concerns the target T3, IRAK4 (h) (IL-1 receptor (IL-1R)-associated kinase) (human, UniProt Q9NWZ3 1-460, limits assumed).
T3 sequence (looked up): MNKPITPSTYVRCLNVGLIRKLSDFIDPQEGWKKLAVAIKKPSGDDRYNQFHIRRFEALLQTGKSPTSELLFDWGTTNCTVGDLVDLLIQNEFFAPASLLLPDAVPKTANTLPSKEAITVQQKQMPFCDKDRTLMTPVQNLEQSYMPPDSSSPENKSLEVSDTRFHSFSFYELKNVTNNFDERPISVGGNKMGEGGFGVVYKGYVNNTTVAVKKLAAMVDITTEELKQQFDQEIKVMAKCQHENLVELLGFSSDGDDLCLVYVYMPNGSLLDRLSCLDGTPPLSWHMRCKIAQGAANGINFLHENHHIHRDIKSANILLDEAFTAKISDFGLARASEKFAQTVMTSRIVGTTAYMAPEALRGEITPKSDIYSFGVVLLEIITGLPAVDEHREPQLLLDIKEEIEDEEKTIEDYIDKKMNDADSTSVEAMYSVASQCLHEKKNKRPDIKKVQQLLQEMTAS

Sequence of PKBβ (h) (protein kinase B) (P31751 120-481 limits assumed): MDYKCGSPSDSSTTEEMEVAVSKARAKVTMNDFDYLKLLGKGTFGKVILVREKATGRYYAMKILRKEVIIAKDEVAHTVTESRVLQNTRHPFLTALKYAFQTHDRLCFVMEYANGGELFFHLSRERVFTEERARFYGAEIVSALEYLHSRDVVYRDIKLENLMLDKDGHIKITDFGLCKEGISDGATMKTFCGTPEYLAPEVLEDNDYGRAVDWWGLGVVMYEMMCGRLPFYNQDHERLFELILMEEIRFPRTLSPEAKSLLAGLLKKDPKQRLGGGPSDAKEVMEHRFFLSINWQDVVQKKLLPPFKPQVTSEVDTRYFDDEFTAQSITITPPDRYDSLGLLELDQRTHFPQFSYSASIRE
T1 sequence (P49137 46-400 limits assumed): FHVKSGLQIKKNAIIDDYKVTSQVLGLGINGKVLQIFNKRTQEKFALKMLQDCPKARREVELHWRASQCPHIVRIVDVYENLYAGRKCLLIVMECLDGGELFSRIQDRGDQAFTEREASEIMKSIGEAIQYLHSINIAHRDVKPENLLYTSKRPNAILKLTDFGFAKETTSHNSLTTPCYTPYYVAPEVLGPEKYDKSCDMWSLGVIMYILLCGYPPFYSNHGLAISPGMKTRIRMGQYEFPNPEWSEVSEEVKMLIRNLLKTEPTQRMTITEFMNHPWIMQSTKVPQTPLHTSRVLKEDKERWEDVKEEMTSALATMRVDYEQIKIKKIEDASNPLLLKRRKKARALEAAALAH

B1: WLRRIKAWLRRIKA (peptide)
peptide: WLRRIKAWLRRIKA
On to B1, for which, in assay [1], the “% change in MK2 reaction velocity vs unsubstituted …, peptide at 100 µM” value (from here on “% change in MK2 reaction velocity”) is -83%.

B2: KALNdRQLGVAA (peptide)
peptide: KALN[dR]QLGVAA-NH2
modifications: N-terminus assumed
SMILES: CC(C)C[C@H](NC(=O)[C@H](C)NC(=O)[C@@H](N)CCCCN)C(=O)N[C@@H](CC(N)=O)C(=O)N[C@H](CCCNC(=N)N)C(=O)N[C@@H](CCC(N)=O)C(=O)N[C@@H](CC(C)C)C(=O)NCC(=O)N[C@H](C(=O)N[C@@H](C)C(=O)N[C@@H](C)C(N)=O)C(C)C
For the molecule B2, the “% change in MK2 reaction velocity” value in assay [1] is 206%.

B3: YGRKKRRQRRR (peptide)
peptide: YGRKKRRQRRR
Regarding B3, the “% change in MK2 reaction velocity” value in assay [1] was found to be 44%.

B4: KALNRQLAVAA (peptide)
peptide: KALNRQLAVAA
For the molecule B4, the “% change in MK2 reaction velocity” value in assay [1] is -28%.

B5: KALNRQLGdVAA (peptide)
peptide: KALNRQLG[dV]AA-NH2
modifications: N-terminus assumed
SMILES: CC(C)C[C@H](NC(=O)[C@H](C)NC(=O)[C@@H](N)CCCCN)C(=O)N[C@@H](CC(N)=O)C(=O)N[C@@H](CCCNC(=N)N)C(=O)N[C@@H](CCC(N)=O)C(=O)N[C@@H](CC(C)C)C(=O)NCC(=O)N[C@@H](C(=O)N[C@@H](C)C(=O)N[C@@H](C)C(N)=O)C(C)C
As for B5, the “% change in MK2 reaction velocity” value in [1] was 160%.

B6: KALNRdQLGVAA (peptide)
peptide: KALNR[dQ]LGVAA-NH2
modifications: N-terminus assumed
SMILES: CC(C)C[C@H](NC(=O)[C@H](C)NC(=O)[C@@H](N)CCCCN)C(=O)N[C@@H](CC(N)=O)C(=O)N[C@@H](CCCNC(=N)N)C(=O)N[C@H](CCC(N)=O)C(=O)N[C@@H](CC(C)C)C(=O)NCC(=O)N[C@H](C(=O)N[C@@H](C)C(=O)N[C@@H](C)C(N)=O)C(C)C
As for B6, the “% change in MK2 reaction velocity” value in [1] was determined as 176%.

B7: KAdLNRQLGVAA (peptide)
peptide: KA[dL]NRQLGVAA-NH2
modifications: N-terminus assumed
SMILES: CC(C)C[C@H](NC(=O)[C@H](CCC(N)=O)NC(=O)[C@H](CCCNC(=N)N)NC(=O)[C@H](CC(N)=O)NC(=O)[C@@H](CC(C)C)NC(=O)[C@H](C)NC(=O)[C@@H](N)CCCCN)C(=O)NCC(=O)N[C@H](C(=O)N[C@@H](C)C(=O)N[C@@H](C)C(N)=O)C(C)C
Regarding B7, the “% change in MK2 reaction velocity” value in assay [1] came to 46%.

B8: KAFAKLAARLYRLARQLGVAA (peptide)
peptide: KAFAKLAARLYRLARQLGVAA
B8: the “Kinase Activity, peptide at 100 µM, radiometric assay” value (from here on “Kinase Activity, peptide at 100 µM”) in [2] turned out to be 28%; in assay [3] it was 59%; in [4], 29%; in [5], 0%; in assay [6] it was 148%; in [7], 2%. The “Kinase Activity, peptide at 100 µM” value in [8] turned out to be 8%; in assay [9] it was 17%; in [10], 16%.

B9: KALNRQLGAAA (peptide)
peptide: KALNRQLGAAA
As to B9, the “% change in MK2 reaction velocity” value in assay [1] turned out to be 273%.

B10: KKKALNRQLGVAA (peptide)
peptide: KKKALNRQLGVAA
With B10, the “% change in MK2 reaction velocity” value in assay [1] is -9%.

B11: FAKLAARLYRLARQLGVAA (peptide)
peptide: FAKLAARLYRLARQLGVAA
As for B11, the “Kinase Activity, peptide at 100 µM” value came out at 16% in assay [2]; 30% in assay [3]; 25% in [4]; 0% in assay [5]; 131% in assay [6]; 1% in [7]. In addition, the results for the “Kinase Activity, peptide at 100 µM” value in [8], in assay [9] and in [10] were 5%, 10% and 13%, respectively.

B12: WLRRIKAWLRRIKALNRQLGV (peptide)
peptide: WLRRIKAWLRRIKALNRQLGV
For B12, the “% change in MK2 reaction velocity” value in [1] was -132%.

B13: KALdNRQLGVAA (peptide)
peptide: KAL[dN]RQLGVAA-NH2
modifications: N-terminus assumed
SMILES: CC(C)C[C@H](NC(=O)[C@H](C)NC(=O)[C@@H](N)CCCCN)C(=O)N[C@H](CC(N)=O)C(=O)N[C@@H](CCCNC(=N)N)C(=O)N[C@@H](CCC(N)=O)C(=O)N[C@@H](CC(C)C)C(=O)NCC(=O)N[C@H](C(=O)N[C@@H](C)C(=O)N[C@@H](C)C(N)=O)C(C)C
Regarding B13, the “% change in MK2 reaction velocity” value in assay [1] is -5%.

B14: KALNRQLGVA (peptide)
peptide: KALNRQLGVA
With B14, the “% change in MK2 reaction velocity” value in assay [1] stood at 0%.

B15: WLRRIKA (non-functional) (peptide)
peptide: WLRRIKA
Regarding B15, the “% change in MK2 reaction velocity” value in assay [1] stood at 4310%.

B16: KALARQLGVAA (peptide)
peptide: KALARQLGVAA
Take B16: the “% change in MK2 reaction velocity” value in [1] is -61%.

B17: KALNAQLGVAA (peptide)
peptide: KALNAQLGVAA
Turning to B17, the “% change in MK2 reaction velocity” value in assay [1] came out at 258%.

B18: Alanine-substitution peptide printed as KALNRQLGVAA (Table 1, fourth alanine row) (peptide)
peptide: KALNRQLGVAA
Take B18: the “% change in MK2 reaction velocity” value in assay [1] came to 258%.

B19: KAANRQLGVAA (peptide)
peptide: KAANRQLGVAA
Consider B19, for which, in [1], the “% change in MK2 reaction velocity” value turned out to be 52%.

B20: KALNRQAGVAA (peptide)
peptide: KALNRQAGVAA
As for B20, the “% change in MK2 reaction velocity” value in assay [1] amounted to 18%.

B21: KALNRQdLGVAA (peptide)
peptide: KALNRQ[dL]GVAA-NH2
modifications: N-terminus assumed
SMILES: CC(C)C[C@H](NC(=O)[C@H](C)NC(=O)[C@@H](N)CCCCN)C(=O)N[C@@H](CC(N)=O)C(=O)N[C@@H](CCCNC(=N)N)C(=O)N[C@@H](CCC(N)=O)C(=O)N[C@H](CC(C)C)C(=O)NCC(=O)N[C@H](C(=O)N[C@@H](C)C(=O)N[C@@H](C)C(N)=O)C(C)C
For B21, the “% change in MK2 reaction velocity” value in assay [1] was found to be 257%.

B22: WLRRIKAWLRRIKALNRQLGVAA (peptide)
peptide: WLRRIKAWLRRIKALNRQLGVAA
Regarding B22, the “Kinase Activity, peptide at 30 µM, radiometric assay” value in assay [2] worked out at 18%; in [3] it was 61%; in [4], 0%; in [5], 9%; in assay [6] it was 67%; in [7] it was 4%. Moreover, the “Kinase Activity, peptide at 30 µM, radiometric assay” value is 2% in [8], 16% in [9] and 12% in assay [10].
